Assay results: the supplement of paper PMC9112550, “Optimization of the antimicrobial peptide Bac7 by deep mutational scanning” (BMC Biology, 2022)

System: Escherichia coli TOP10
Experiment: shrunken log2 fold change of peptide-encoding DNA abundance (4.5 h post-induction vs induction); higher = less antimicrobial activity (less host growth inhibition)
Details: time post-induction: 4.5 h; library: site-saturation at positions 5, 18, 19, 20
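Further: peptides expressed intracellularly from a pBAD plasmid library in pooled LB shake-flask culture, induced with 0.3% L-arabinose, DNA abundance read by NGS, three biological replicates, DESeq2 with apeglm shrinkage.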

Row | Sequence | shrunken log2 fold change
1 | RRIRCRPPRLPRPRPRPHVIPRP | -0.245
2 | RRIRCRPPRLPRPRPRPHVKPRP | -0.284
3 | RRIRCRPPRLPRPRPRPHVVPRP | -0.137
4 | RRIRCRPPRLPRPRPRPHWNPRP | -0.551
5 | RRIRCRPPRLPRPRPRPHYEPRP | -0.442
6 | RRIRCRPPRLPRPRPRPHYSPRP | -0.723
7 | RRIRCRPPRLPRPRPRPIAQPRP | 0.00422
8 | RRIRCRPPRLPRPRPRPICAPRP | 0.107
9 | RRIRCRPPRLPRPRPRPICHPRP | 1.48
10 | RRIRCRPPRLPRPRPRPICTPRP | -0.307
11 | RRIRCRPPRLPRPRPRPIDWPRP | 0.0664
12 | RRIRCRPPRLPRPRPRPIEDPRP | 0.102
13 | RRIRCRPPRLPRPRPRPIELPRP | -0.0768
14 | RRIRCRPPRLPRPRPRPIERPRP | 0.0355
15 | RRIRCRPPRLPRPRPRPIFRPRP | -0.013
16 | RRIRCRPPRLPRPRPRPIFTPRP | -0.48
17 | RRIRCRPPRLPRPRPRPIGQPRP | 0.0567
18 | RRIRCRPPRLPRPRPRPIHIPRP | -0.893
19 | RRIRCRPPRLPRPRPRPIIYPRP | -0.739
20 | RRIRCRPPRLPRPRPRPIKSPRP | -0.185
21 | RRIRCRPPRLPRPRPRPIKVPRP | -0.000403
22 | RRIRCRPPRLPRPRPRPILGPRP | -0.378
23 | RRIRCRPPRLPRPRPRPILSPRP | -0.362
24 | RRIRCRPPRLPRPRPRPILTPRP | -0.302
25 | RRIRCRPPRLPRPRPRPIMRPRP | 0.415

Row | Sequence | shrunken log2 fold change
26 | RRIRCRPPRLPRPRPRPIPHPRP | -0.744
27 | RRIRCRPPRLPRPRPRPIPSPRP | -0.308
28 | RRIRCRPPRLPRPRPRPIQSPRP | 0.0164
29 | RRIRCRPPRLPRPRPRPIRYPRP | -1.42
30 | RRIRCRPPRLPRPRPRPISDPRP | -0.237
31 | RRIRCRPPRLPRPRPRPISMPRP | -0.65
32 | RRIRCRPPRLPRPRPRPITGPRP | -0.213
33 | RRIRCRPPRLPRPRPRPITHPRP | -0.158
34 | RRIRCRPPRLPRPRPRPIVDPRP | 0.0181
35 | RRIRCRPPRLPRPRPRPIWWPRP | 0.475
36 | RRIRCRPPRLPRPRPRPIYYPRP | -0.653
37 | RRIRCRPPRLPRPRPRPKAMPRP | 0.234
38 | RRIRCRPPRLPRPRPRPKAYPRP | -0.0053
39 | RRIRCRPPRLPRPRPRPKCCPRP | 0.0554
40 | RRIRCRPPRLPRPRPRPKCDPRP | -0.135
41 | RRIRCRPPRLPRPRPRPKCFPRP | -0.372
42 | RRIRCRPPRLPRPRPRPKCQPRP | 0.201
43 | RRIRCRPPRLPRPRPRPKCTPRP | -0.0914
44 | RRIRCRPPRLPRPRPRPKEEPRP | -0.0302
45 | RRIRCRPPRLPRPRPRPKGFPRP | 0.00848
46 | RRIRCRPPRLPRPRPRPKGWPRP | 0.811
47 | RRIRCRPPRLPRPRPRPKHKPRP | -0.164
48 | RRIRCRPPRLPRPRPRPKHYPRP | -0.518
49 | RRIRCRPPRLPRPRPRPKIAPRP | 0.0102
50 | RRIRCRPPRLPRPRPRPKIMPRP | -0.622

Row | Sequence | shrunken log2 fold change
51 | RRIRCRPPRLPRPRPRPKITPRP | -0.573
52 | RRIRCRPPRLPRPRPRPKLMPRP | -0.0168
53 | RRIRCRPPRLPRPRPRPKMHPRP | -0.121
54 | RRIRCRPPRLPRPRPRPKMLPRP | -0.0357
55 | RRIRCRPPRLPRPRPRPKMQPRP | 0.103
56 | RRIRCRPPRLPRPRPRPKNCPRP | 0.0619
57 | RRIRCRPPRLPRPRPRPKNMPRP | -0.727
58 | RRIRCRPPRLPRPRPRPKPSPRP | 0.136
59 | RRIRCRPPRLPRPRPRPKSSPRP | 0.122
60 | RRIRCRPPRLPRPRPRPKSVPRP | 0.0362
61 | RRIRCRPPRLPRPRPRPKTCPRP | -0.211
62 | RRIRCRPPRLPRPRPRPKTLPRP | -0.246
63 | RRIRCRPPRLPRPRPRPKTNPRP | 0.00906
64 | RRIRCRPPRLPRPRPRPKVDPRP | 0.0328
65 | RRIRCRPPRLPRPRPRPKWAPRP | 0.0877
66 | RRIRCRPPRLPRPRPRPKYMPRP | -0.498
67 | RRIRCRPPRLPRPRPRPLAAPRP | 0.351
68 | RRIRCRPPRLPRPRPRPLACPRP | -0.236
69 | RRIRCRPPRLPRPRPRPLAFPRP | -0.165
70 | RRIRCRPPRLPRPRPRPLCQPRP | -0.949
71 | RRIRCRPPRLPRPRPRPLDVPRP | -0.41
72 | RRIRCRPPRLPRPRPRPLEAPRP | 0.203
73 | RRIRCRPPRLPRPRPRPLEGPRP | 0.15
74 | RRIRCRPPRLPRPRPRPLENPRP | -0.102
75 | RRIRCRPPRLPRPRPRPLFAPRP | 0.0307

Row | Sequence | shrunken log2 fold change
76 | RRIRCRPPRLPRPRPRPLFTPRP | -0.42
77 | RRIRCRPPRLPRPRPRPLFYPRP | -0.764
78 | RRIRCRPPRLPRPRPRPLHEPRP | -0.23
79 | RRIRCRPPRLPRPRPRPLHNPRP | -0.264
80 | RRIRCRPPRLPRPRPRPLHYPRP | -0.352
81 | RRIRCRPPRLPRPRPRPLIHPRP | -0.842
82 | RRIRCRPPRLPRPRPRPLILPRP | -0.373
83 | RRIRCRPPRLPRPRPRPLIWPRP | -0.177
84 | RRIRCRPPRLPRPRPRPLKIPRP | -0.511
85 | RRIRCRPPRLPRPRPRPLLIPRP | -0.4
86 | RRIRCRPPRLPRPRPRPLLRPRP | 0.88
87 | RRIRCRPPRLPRPRPRPLMCPRP | -0.306
88 | RRIRCRPPRLPRPRPRPLMEPRP | -0.0946
89 | RRIRCRPPRLPRPRPRPLMTPRP | -0.0133
90 | RRIRCRPPRLPRPRPRPLNSPRP | -0.605
91 | RRIRCRPPRLPRPRPRPLPVPRP | -0.105
92 | RRIRCRPPRLPRPRPRPLRLPRP | 0.0282
93 | RRIRCRPPRLPRPRPRPLSKPRP | -0.103
94 | RRIRCRPPRLPRPRPRPLSRPRP | -0.143
95 | RRIRCRPPRLPRPRPRPLTAPRP | -0.119
96 | RRIRCRPPRLPRPRPRPLWIPRP | -0.166
97 | RRIRCRPPRLPRPRPRPLWMPRP | -0.378
98 | RRIRCRPPRLPRPRPRPLYYPRP | -1.03
99 | RRIRCRPPRLPRPRPRPMASPRP | -0.00968
100 | RRIRCRPPRLPRPRPRPMATPRP | 0.0993

Row | Sequence | shrunken log2 fold change
101 | RRIRCRPPRLPRPRPRPMCDPRP | 0.128
102 | RRIRCRPPRLPRPRPRPMEFPRP | -0.0158
103 | RRIRCRPPRLPRPRPRPMFFPRP | -0.399
104 | RRIRCRPPRLPRPRPRPMFGPRP | -0.556
105 | RRIRCRPPRLPRPRPRPMHEPRP | -0.00208
106 | RRIRCRPPRLPRPRPRPMHIPRP | -0.241
107 | RRIRCRPPRLPRPRPRPMHRPRP | 0.0421
108 | RRIRCRPPRLPRPRPRPMKDPRP | -0.594
109 | RRIRCRPPRLPRPRPRPMKQPRP | -0.436
110 | RRIRCRPPRLPRPRPRPMKVPRP | -0.126
111 | RRIRCRPPRLPRPRPRPMMAPRP | 0.184
112 | RRIRCRPPRLPRPRPRPMNGPRP | -0.0977
113 | RRIRCRPPRLPRPRPRPMPVPRP | 0.161
114 | RRIRCRPPRLPRPRPRPMQHPRP | -0.173
115 | RRIRCRPPRLPRPRPRPMRFPRP | 0.249
116 | RRIRCRPPRLPRPRPRPMSIPRP | -0.484
117 | RRIRCRPPRLPRPRPRPMTCPRP | -0.205
118 | RRIRCRPPRLPRPRPRPMVDPRP | 0.02
119 | RRIRCRPPRLPRPRPRPMVFPRP | -0.0164
120 | RRIRCRPPRLPRPRPRPMWSPRP | -0.147
121 | RRIRCRPPRLPRPRPRPMYSPRP | -0.386
122 | RRIRCRPPRLPRPRPRPNCEPRP | 0.223
123 | RRIRCRPPRLPRPRPRPNCGPRP | -0.281
124 | RRIRCRPPRLPRPRPRPNCTPRP | -0.322
125 | RRIRCRPPRLPRPRPRPNECPRP | -0.37

Row | Sequence | shrunken log2 fold change
126 | RRIRCRPPRLPRPRPRPNGYPRP | -0.122
127 | RRIRCRPPRLPRPRPRPNIKPRP | -0.647
128 | RRIRCRPPRLPRPRPRPNKTPRP | -0.0276
129 | RRIRCRPPRLPRPRPRPNLAPRP | -0.122
130 | RRIRCRPPRLPRPRPRPNLGPRP | -0.283
131 | RRIRCRPPRLPRPRPRPNMWPRP | -0.0109
132 | RRIRCRPPRLPRPRPRPNNIPRP | -0.843
133 | RRIRCRPPRLPRPRPRPNNNPRP | -0.797
134 | RRIRCRPPRLPRPRPRPNPHPRP | -0.158
135 | RRIRCRPPRLPRPRPRPNQHPRP | -0.337
136 | RRIRCRPPRLPRPRPRPNQSPRP | 2.47
137 | RRIRCRPPRLPRPRPRPNRPPRP | -0.0846
138 | RRIRCRPPRLPRPRPRPNSDPRP | -0.255
139 | RRIRCRPPRLPRPRPRPNSPPRP | -0.217
140 | RRIRCRPPRLPRPRPRPNTYPRP | -0.774
141 | RRIRCRPPRLPRPRPRPNVSPRP | 0.0773
142 | RRIRCRPPRLPRPRPRPNWQPRP | -0.145
143 | RRIRCRPPRLPRPRPRPNYCPRP | -0.3
144 | RRIRCRPPRLPRPRPRPNYKPRP | -0.831
145 | RRIRCRPPRLPRPRPRPPDCPRP | 0.177
146 | RRIRCRPPRLPRPRPRPPEDPRP | 0.754
147 | RRIRCRPPRLPRPRPRPPETPRP | 0.105
148 | RRIRCRPPRLPRPRPRPPHEPRP | 1.23
149 | RRIRCRPPRLPRPRPRPPIKPRP | -0.0789
150 | RRIRCRPPRLPRPRPRPPIWPRP | 0.134
